In the DeepSol protein solubility set:

Experiment: soluble on expression in E. coli; label from the status in PepcDB or PDB records

Sequence | soluble on expression in E. coli
MSLPHVILTVLSTRDATGYDITKEFSASIGYFWKASHQQVYRELNKMGEQGLVTCVLEPQEGKPDRKVYSITQAGRSALGEWFDQPTAHPTVRDEFSAKLMACSVQSAEPYRLQLAELVEESRKLVAHYQEIEAAYYANPAVLDKQQRLERLTLRRNLLVRQAWIQWADEVLAELNAMA | soluble
MVMNQKNLFTRSALAAAIALISSNVSAAGFQLNEYSAAALGRAFSGEGAVADNASVGSRNPAAMTLFDRPSFSGGVIYIDPSVDITGTSPSGKSTDASNIAPSAWVPNLHFIMPLDEQWAIGASATSNYGLATEFNDDYVAGMLGGQTDLKTANLNLSAAYRLNDNFSFGLGFDAVYADAKIVRHLGEAGGGLLPANTEAARLEGTKWGYGWNTGILYEIDKENRYSFTYRSEVNIDFDGDYSNQLPVIFGGLGGKTVPGSLTLNLPAVWEVSGYNKVAPQWAIHYSMAYTTWSSFKELKATASNGDVLFDKHEGFRDAYRIALGTTYYYDDNWTFRTGIAFDDSPIPAGNRSISIPDQDRFWLSAGTTYAFNKNASVDVGIAYMKGQNVSITEKTPAPSNTTYEFNSKGSAMLYGVNFNYTF | not soluble
ADTYAATRYPVILVHGLAGTDKFANVVDYWYGIQSDLQSHGAKVYVANLSGFQSDDGPNGRGEQLLAYVKQVLAATGATKVNLIGHSQGGLTSRYVAAVAPQLVASVTTIGTPHRGSEFADFVQDVLKTDPTGLSSTVIAAFVNVFGTLVSSSHNTDQDALAALRTLTTAQTATYNRNFPSAGLGAPGSCQTGAATETVGGSQHLLYSWGGTAIQPTSTVLGVTGATDTSTGTLDVANVTDPSTLALLATGAVMINRASGQNDGLVSRCSSLFGQVISTSYHWNHLDEINQLLGVRGANAEDPVAVIRTHVNRLKLQGV | soluble
MQHFSRSVALLALSAGTLTSLPALAADELHYNQISLRAEVSQEVARDLMIVTLYSESQNTDPAKLAAEITTTMNKALDQARQVKDVTLRQGSRNSYPIYDGKGQKITGWRERAELRLESSDFAALSKLTGELLGDLKMGGMDFAIADPTRKASEDALLKDAVKAFKARAQLATEALGGKGYKIVNLNLNSNGYPQPYMRAPMMMKAASMDSAPVTPEVEAGTSQVSMTADGAIEVLMPLEHHHHHH | soluble
MNVLVIGRGGREHALAWKFAQSEKVEKVYVAPGNEGMRDVATPIDIDENDFDALVLFAKENHVELTFVGPEIPLMNGIVDRFKEEGLRVFGPNKAAAVIEGSKAFTKELMKKYNIPTAAYETFTDYEEAVQYIEKVGAPIVIKADGLAAGKGVTVAMTLEEALQAAKEMLQDVKFGEASKKVVIEEFLDGQEFSLMAFVNGTTVHPMVIAQDHKRAFDGDKGPNTGGMGAYSPVPQISESAVQEAIETVLYPTAKAMIQENRSFTGILYAGLILTNDGPKVIEFNARFGDPETEVVLPRLENDLVDVCNAVLDESELTLQWSDEAVIGVVLAAKGYPEAYKKGDIIKGLDALQDVIVFHAGTAMKRGDFVTNGGRVLFVACKANSLQEAKDKVYKEIGKIESDVLFYRSDIGYRAIGHEMTRS | not soluble
MENSGHKVYYCMGSPLFALNAGRMENNLVAFSGGLSINKQLQKEGKPGINVSPSFINENNPDTIFISGFLSRPLDEFYTLCRQYGIETDAVKQQRVYEVPPSWDFGNPRWILGLMYIADKLYPGNSGIDLEKEADEFYRQFYGMPYLEHHHHHH | soluble
MGSDKIHHHHHHMSTTPTTRLILETLLPHLKVAAAYAHFLQPKIAALPAKGEGNNFFSAALTDADVAIQNLVEVVLLGTFPDIRFYGEEYASSNNTKYFRATELGSKGDYLVTLDPIDGTKFYMDGHSNYQIILSILNSDDFEAVIAISPAQNIYFYALRGEGAFKGTLEMSLEACAPLHITSAKPAILLGWAMNSIGHLLKDRYQVIDIAADYSSDIQIPNLNGILTGDLSGAVIKSGKFIDVAALAFIVKEAGWIVTTLDGSTLPPLHTCQNYSLPGLVIATSKSVHQDLLKAVQSLAV | not soluble
HRQLLSRDTHGFNVTVTSTIPEDAGLGDQEALIMAAALAFAHDYEDVHTAPIKAKFADVCFQASQAATGRPHVRARFDSALRGLASDLNIVDYSDGSVTHFPHPLNTQSDYAAFVVIPPVGAEQTAEVERRQAFITSAEKAFGTDSLRVLPDARERVIEWLQAVHEVCGTDDVPTITEAANWLEFMENETQAAINAAQAIKSRRHAACFDIVSESQRNLESLYTITTTDAMLSQLCLSRGAVSAR | not soluble
MRGGMGNMQKMMKQMQKMQKDMAKAQEELAEKVVEGTAGGGMVTVKANGQKEILDVIIKEEVVDPEDIDMLQDLVLAATNEALKKVDEITNETMGQFTKGMNMPGLF | soluble
EKKEQKEKEKKEQEIKKKFKLTGPIQVIHLAKACCDVKGGKNELSFKQGEQIEIIRITDNPEGKWLGRTARGSYGYIKTTAVEIDYDSLKLKKDLE | soluble
MIDLAPLVRRLAGTPLAEWANGLQAQLDTKMSKGHGDLQRWQSALDALPALQPEKVDLTDSFTLETECDGETRTVLRKALLGLSPWRKGPFNVFGVHIDTEWRSDWKWSRVSPHLDLKGKRVLDVGCGNGYYQWRMLGAGADSVIGVDPNWLFFCQFQAMQRYLPDLPAWHLPFALEDLPANLEGFDTVFSMGVLYHRKSPIDHLLALKDCLVKGGELVMETLVIPGDVHQVLVPEDRYAQMRNVWFLPSVPALELWMRRAGFTDVRCVDVSHTTVEEQRSTEWMRFQSLGDYLDPNDHSKTVEGLPAPMRAVIVGRKP | not soluble
MCNNEAKMSELLSVQSDAPAKKINLMDLTRQQMREFFKELGEKPFRADQLVKWIYHFGEDNFDNMTNINKKLREKLKAVAEIKAPEVAVEQRSADGTIKWAMQVGEQQVETVYIPEADRATLCVSSQVGCALACTFCSTAQQGFNRNLTVSEIIGQVWRASKIIGNFGVTGVRPITNVVMMGMGEPLLNVANVVPAMEIMLDDFAYGLSKRRVTLSTSGVVPALDNLSKMIDVALAISLHAPNDELRDEIVPINKKYNIKTLIDSVNRYLNVSNANHGKVTIEYVMLDHVNDGVEHAHQLAEVLKNTPCKINLIPWNPFPEAPYAKSSNTRIDRFQKTLMEYDFTVIIRKTRGDDIDAACGQLAGDVIDRTKRTAMKRQFGQNIGVTEVN | not soluble
MTLPSSCAPLTGISRARLPAWALPDGWPTQANGEPLLADLAFRDGRIAALTPTDQPTPGLWDLAGALTLPGLVEPHAHLDKTFTIERCRPAQAGLLPAIHAMHEDRRHWSRADIQRRASAALARAAANGVTHLRSHIDWFNADAPDAWQEIARLDTVGITLERVALVPLPLFRELAQAEAIARTVANSGERCLLGGFIHSSNWDATAMENLLYSAARWDLDLDLHIDEELSEVSQGLTWLADHLSRHPFPGHICCSHGCALAAGSDEQAAPILRQLAAHGVTLIALPMTNLLLQDATFGRTPRQRGITLLHEAQAAGVATLLGCDNVQDAFCPAGSYDPLDTLACGLFSAQLSDLFDQQSRLICDRAALTGSPADAAPFAVGAAASVVIFPGSDRFTWPLNSAARLVVNHGRLTHRRVWQEEMAHES | not soluble
MRLVIARCSVDYIGRLEAHLPMADRLLMVKADGSVSIHADDRAYKPLNWMTPPCTLTETTHEESETGESIPLWIVENKKGEQLRITIEALHSDMYYDLGEDPGLQKDGVEAHLQELLAEHIETLGDGYSLVRREYPTPIGPVDILCRDDKGGSVAVEIKRRGGIDGVEQLSRYLELLNRDDLLAPVAGVFAAQHIKPQARTLAEDRGIRCVTLDYDSLRGIESTELRLF | not soluble
MPTVSVKWQKKVLDGIEIDVSLPPYVFKAQLYDLTGVPPERQKIMVKGGLLKDDGDWAAIGVKDGQKLMMMGTADEIVKAPEKAIVFAEDLPEEALATNLGYSAGLVNLGNTCYMNSTVQCLKSVPELKSALSNYSLAARSNDVDQTSHMLTVATRELFGELDRSVLRKKYPQFSQLQNGMHMQQDAEECWTQLLYTLSQSLKAPTSSEGADAVKALFGVNLQSRIKLGVLDNVTDSTVISKCTLHCQESGEESSETESVYSLKCHISHEVNHLHEGLKHGLKGELEKTSPALGRTALYVKESLIDSLPRYLTVQFVRFFWKRESNQKAKILRKVDYPLVLDIFDLCSEDLRKKLEAPRQKLREEEGKKLGLQTSAKSGSKDSDVKMTDAEASANGSGESSTVNPQEGTSSEKETHMTGIYDLVAVLTHKGRSADSGHYVAWVKQESGKWIQYDDDNPSMQREEDITKLSGGGDWHMAYITMYKARFVSM | soluble
MLSRVRIGWLLLEDFFRMNEFEELLNSVSEVSTGDVVTAEVISVDNDQANVVIEGTGIEGVLTRRELTNDRDANVADLVKDGETLEVLVLRQVVGKDTDTVTYLVSKKRLEARKAWDKLVGREEEVVTVKGTRAVKGGLSVEFEGLRGFIPASMIDTRFVRNTEQFVGQEFDAKIKEVDPAENRFILSRREVVEAEAIEARKEVFSKLEVGSVVTGKVARLTSFGAFIDLGGVDGLVHVTELSHERNVSPKSVVSVGDEIEVKVLAIDEEAGRVSLSLKATTPGPWDGVEQKLAAGDVIEGKVKRLTDFGGFVEVLPGIDGLVHISQISHKRVENPKDVLSVGQDVTVKVLEVNADAERVSLSIKALEERPANAEGENNEKRQSRPRRPKRQEKRDYELPETQSGFSMADLFGDIEL | not soluble
MKSALSDLAFFGGPAAFDQPLLVGRPNRIDRARLYERLDRALDSQWLSNGGPLVREFEERVAGLAGVRHAVATCNATAGLQLLAHAAGLTGEVIMPSMTFAATPHALRWIGLTPVFADIDPDTGNLDPDQVAAAVTPRTSAVVGVHLWGRPCAADQLRKVADEHGLRLYFDAAHALGCAVDGRPAGSLGDAEVFSFHATKAVNAFEGGAVVTDDADLAARIRALHNFGFDLPGGSPAGGTNAKMSEAAAAMGLTSLDAFPEVIDRNRRNHAAYREHLADLPGVLVADHDRHGLNNHQYVIVEIDEATTGIHRDLVMEVLKAEGVHTRAYFSPGCHELEPYRGQPHAPLPHTERLAARVLSLPTGTAIGDDDIRRVADLLRLCATRGRELTARHRDTAPAPLAAPQTSTPTIGRSRGLEHHHHHH | soluble
MPISETWLLPDGVADVLPEQAQVVETLRRQALDFLASRGYQLVYTPFIEYIESLSLLSESNHDLDLVTFKVIDQLSGRLLGVRADMTPQVARIDAHVRSIEGVARYCYAGTVLHTKPQNFNSSRAPLQLGAELYGHQSLEADIEMVDVMLGLIQQAHNLEGLHLDLGHVGLFRSLVKRAGLSKQVEQDLSDLYQRKALPELEEVTKTLAFGSDFYALGRYASDLNALEQHLSQDVLNDASFKTSLDDLKTTLSQIQTRWPNLRIGIDVVELRSYHYHTGLMYAVYAPNRAAPLAQGGRYDGIGEHFGRARPATGFSCDLYALCVGQFKEIETIVAPAGQDQQLLGAIAQARQNGLRVIQLLGNDDLSSVPYATHKMELAQDQWQINKI | not soluble
MAKYNEKKEKKRIAKERIDILFSLAERVFPYSPELAKRYVELALLVQQKAKVKIPRKWKRRYCKKCHAFLVPGINARVRLRQKRMPHIVVKCLECGHIMRYPYIKEIKKRRKEKMEYGGLVPR | soluble
MPAGFTHFRLVTRNNMKSLTTETALDILIAWLQDNIDCGSGIIFDNDEDKTDSAALLPCIEQAREDVRTLRHLQLLHQNR | soluble
RVAYIQIIEPDNLIKQGDLRSIRVKSIPSARGIISDRNGEPLAVSVPVEAVWADPATIFKENALSQKQNWYALADVLGVDRQGLIDKIKRNEKRRFIYLQRQVSPAMANYIRELKLPGIGLKSESRRYYPAGEVSAHLVGVTGIDGHGLEGVERSYDEWLTGEEGKKTIRKDRYGRVVENIAWQDKQEGKSLQLTIDQRLQAIAYRAIKQAVADHRATSGSVVMLDVKTGAVLAMVNAPSYNPNNRTDWQSYKMRNRVITDSMEPGSTIKPFVILAALENGVADKDTIVDTGNGVLRLGGSRVRDVSWVGKASLSMILKKSSNIGVTKLAMQMPVEALLGLYSSVGFGELSGLNLVGEVTGIFPTRTRWSPIERATIA | not soluble
